# Test results published in PMC12170886, “CHD8 interacts with BCL11A to induce oncogenic transcription in triple negative breast cancer” (The EMBO Journal, 2025).
# B1: recombinant full-length human BCL11A (natural protein, UniProt Q9H165 1-835, looked up)
# chain: MSRRKQGKPQHLSKREFSPEPLEAILTDDEPDHGPLGAPEGDHDLLTCGQCQMNFPLGDILIFIEHKRKQCNGSLCLEKAVDKPPSPSPIEMKKASNPVEVGIQVTPEDDDCLSTSSRGICPKQEHIADKLLHWRGLSSPRSAHGALIPTPGMSAEYAPQGICKDEPSSYTCTTCKQPFTSAWFLLQHAQNTHGLRIYLESEHGSPLTPRVGIPSGLGAECPSQPPLHGIHIADNNPFNLLRIPGSVSREASGLAEGRFPPTPPLFSPPPRHHLDPHRIERLGAEEMALATHHPSAFDRVLRLNPMAMEPPAMDFSRRLRELAGNTSSPPLSPGRPSPMQRLLQPFQPGSKPPFLATPPLPPLQSAPPPSQPPVKSKSCEFCGKTFKFQSNLVVHRRSHTGEKPYKCNLCDHACTQASKLKRHMKTHMHKSSPMTVKSDDGLSTASSPEPGTSDLVGSASSALKSVVAKFKSENDPNLIPENGDEEEEEDDEEEEEEEEEEEEELTESERVDYGFGLSLEAARHHENSSRGAVVGVGDESRALPDVMQGMVLSSMQHFSEAFHQVLGEKHKRGHLAEAEGHRDTCDEDSVAGESDRIDDGTVNGRGCSPGESASGGLSKKLLLGSPSSLSPFSKRIKLEKEFDLPPAAMPNTENVYSQWLAGYAASRQLKDPFLSFGDSRQSPFASSSEHSSENGSLRFSTPPGELDGGISGRSGTGSGGSTPHISGPGPGRPSSKEGRRSDTCEYCGKVFKNCSNLTVHRRSHTGERPYKCELCNYACAQSSKLTRHMKTHGQVGKDVYKCEICKMPFSVYSTLEKHMKKWHSDRVLNNDIKTE
# notes: BCL11A, human, full length; no cleavage of the tag is described; also called full-length BCL11A; source: Expi293F, transiently transfected, purified (StrepTactin XT 4-Flow resin)
# Target: T1, recombinant full-length human CHD8 (human, UniProt Q9HCK8 1-2581)
# T1 construct: CHD8, human, full length; no cleavage of the tag is described; also called full-length CHD8; full-length Chd8; source: Expi293F, transiently transfected, purified (StrepTactin XT 4-Flow resin)
# T1 sequence (Q9HCK8 whole entry): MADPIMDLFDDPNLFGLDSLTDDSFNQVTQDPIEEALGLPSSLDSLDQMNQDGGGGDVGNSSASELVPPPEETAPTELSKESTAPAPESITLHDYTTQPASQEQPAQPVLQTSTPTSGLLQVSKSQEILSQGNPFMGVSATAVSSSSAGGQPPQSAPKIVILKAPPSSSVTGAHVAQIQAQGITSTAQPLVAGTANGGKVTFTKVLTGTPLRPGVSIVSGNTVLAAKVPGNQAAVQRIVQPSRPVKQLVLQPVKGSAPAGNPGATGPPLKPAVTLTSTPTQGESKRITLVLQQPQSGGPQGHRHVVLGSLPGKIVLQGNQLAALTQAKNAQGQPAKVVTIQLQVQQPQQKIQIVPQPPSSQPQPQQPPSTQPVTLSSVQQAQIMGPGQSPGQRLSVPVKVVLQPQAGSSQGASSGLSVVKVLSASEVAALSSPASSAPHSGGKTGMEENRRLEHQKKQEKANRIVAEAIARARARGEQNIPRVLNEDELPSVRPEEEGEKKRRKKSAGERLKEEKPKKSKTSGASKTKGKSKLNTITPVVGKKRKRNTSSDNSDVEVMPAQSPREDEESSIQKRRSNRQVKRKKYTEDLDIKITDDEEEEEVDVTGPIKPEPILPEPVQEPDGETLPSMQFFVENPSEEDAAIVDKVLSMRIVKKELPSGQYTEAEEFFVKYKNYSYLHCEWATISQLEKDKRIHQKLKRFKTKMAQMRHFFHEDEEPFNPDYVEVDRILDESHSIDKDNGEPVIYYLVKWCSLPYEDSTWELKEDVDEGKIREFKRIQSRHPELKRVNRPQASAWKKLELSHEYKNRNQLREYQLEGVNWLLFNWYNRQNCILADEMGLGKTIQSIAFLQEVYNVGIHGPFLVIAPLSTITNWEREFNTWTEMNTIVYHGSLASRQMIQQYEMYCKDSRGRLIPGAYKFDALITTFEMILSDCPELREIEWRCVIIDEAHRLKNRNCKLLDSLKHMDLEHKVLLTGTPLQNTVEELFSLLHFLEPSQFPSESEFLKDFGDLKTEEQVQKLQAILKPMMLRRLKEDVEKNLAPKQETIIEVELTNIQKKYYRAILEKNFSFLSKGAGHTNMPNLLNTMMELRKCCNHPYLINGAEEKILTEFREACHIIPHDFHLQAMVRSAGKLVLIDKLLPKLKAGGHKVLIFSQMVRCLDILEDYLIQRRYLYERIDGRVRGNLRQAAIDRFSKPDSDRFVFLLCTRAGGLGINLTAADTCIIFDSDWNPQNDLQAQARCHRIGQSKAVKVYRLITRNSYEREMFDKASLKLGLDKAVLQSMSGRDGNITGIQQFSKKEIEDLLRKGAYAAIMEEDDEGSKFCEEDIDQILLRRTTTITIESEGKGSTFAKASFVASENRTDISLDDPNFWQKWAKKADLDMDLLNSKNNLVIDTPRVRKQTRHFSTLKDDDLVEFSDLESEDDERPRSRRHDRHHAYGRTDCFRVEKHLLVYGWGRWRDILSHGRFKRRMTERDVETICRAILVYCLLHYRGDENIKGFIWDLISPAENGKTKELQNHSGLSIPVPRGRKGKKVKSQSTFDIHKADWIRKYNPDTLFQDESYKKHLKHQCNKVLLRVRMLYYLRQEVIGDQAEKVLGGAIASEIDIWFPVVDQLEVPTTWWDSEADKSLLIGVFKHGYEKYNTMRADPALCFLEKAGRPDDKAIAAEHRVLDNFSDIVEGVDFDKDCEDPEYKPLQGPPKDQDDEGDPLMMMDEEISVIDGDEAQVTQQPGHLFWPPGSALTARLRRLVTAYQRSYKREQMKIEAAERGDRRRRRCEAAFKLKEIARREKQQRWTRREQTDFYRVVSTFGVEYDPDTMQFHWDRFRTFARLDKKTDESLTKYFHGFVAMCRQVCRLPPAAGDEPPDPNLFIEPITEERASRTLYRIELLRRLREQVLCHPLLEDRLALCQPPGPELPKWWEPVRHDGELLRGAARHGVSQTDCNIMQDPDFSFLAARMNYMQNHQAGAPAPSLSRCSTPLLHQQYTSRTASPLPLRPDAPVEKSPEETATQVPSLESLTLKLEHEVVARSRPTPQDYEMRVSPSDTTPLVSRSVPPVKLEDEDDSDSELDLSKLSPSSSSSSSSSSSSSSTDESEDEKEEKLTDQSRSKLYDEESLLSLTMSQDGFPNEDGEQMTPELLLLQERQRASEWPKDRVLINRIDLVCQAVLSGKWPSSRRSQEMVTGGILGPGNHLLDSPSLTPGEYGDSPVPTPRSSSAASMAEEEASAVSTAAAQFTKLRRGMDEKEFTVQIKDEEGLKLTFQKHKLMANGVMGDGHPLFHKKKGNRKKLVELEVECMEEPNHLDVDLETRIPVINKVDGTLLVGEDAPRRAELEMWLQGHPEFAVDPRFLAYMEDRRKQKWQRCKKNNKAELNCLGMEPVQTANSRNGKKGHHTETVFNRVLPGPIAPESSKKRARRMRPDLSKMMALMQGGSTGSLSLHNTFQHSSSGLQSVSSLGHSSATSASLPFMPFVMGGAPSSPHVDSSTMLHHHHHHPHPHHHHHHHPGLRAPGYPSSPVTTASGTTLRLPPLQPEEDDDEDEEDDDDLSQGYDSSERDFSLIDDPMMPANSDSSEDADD
# Test: SPR; Biacore T200; CHD8 amine-coupled to a C1 chip (1585 RU), BSA-coupled reference cell; BCL11A injected 2.62-5737.5 nM (1:3 series), 600 s association, 300 s dissociation; 25 °C, HBS-P+ (10 mM HEPES, 150 mM NaCl, 0.05% Tween 20, pH 7.4); steady-state fit of responses at 600 s
# Settings: both partners purified
binder,measurement,value
B1,Kd,870 nM
